This note sets out measurements from paper PMC5170609 (Molecular Biology of the Cell, 2016).

As usually defined, the Kd is the equilibrium constant for the complex coming apart.

Common to all, as to test: ELISA
A general note: An ELISA detects its analyte on a solid surface through an enzyme-linked reagent.

The target in assay [1] is desmin T453I (recombinant, desminopathy-linked mutant) (UniProt P17661 1-470, T453I).
The target of assay [2] is wild-type full-length desmin (recombinant) (UniProt P17661 1-470).
In assay [3] the target is desmin E245D (recombinant, desminopathy-linked mutant) (UniProt P17661 1-470, E245D).
Sequence of desmin E245D (recombinant, desminopathy-linked mutant) (P17661 whole entry E245D): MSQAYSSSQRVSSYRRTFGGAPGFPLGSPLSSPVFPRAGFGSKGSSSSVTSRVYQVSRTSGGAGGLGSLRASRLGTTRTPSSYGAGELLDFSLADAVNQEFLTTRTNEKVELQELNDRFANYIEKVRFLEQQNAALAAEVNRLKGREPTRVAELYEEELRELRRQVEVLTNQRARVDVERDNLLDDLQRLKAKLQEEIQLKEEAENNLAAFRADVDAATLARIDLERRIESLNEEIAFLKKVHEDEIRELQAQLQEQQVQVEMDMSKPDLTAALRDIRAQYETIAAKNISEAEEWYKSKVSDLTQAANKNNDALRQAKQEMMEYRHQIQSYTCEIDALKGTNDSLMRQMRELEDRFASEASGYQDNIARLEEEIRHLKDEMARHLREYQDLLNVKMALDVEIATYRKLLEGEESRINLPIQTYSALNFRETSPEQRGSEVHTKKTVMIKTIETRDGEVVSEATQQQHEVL

Sequence of wild-type full-length desmin (recombinant) (P17661 whole entry): as the sequence (P17661 whole entry E245D) above, with D245E counted along it
Sequence of desmin T453I (recombinant, desminopathy-linked mutant) (P17661 whole entry T453I): as the sequence (P17661 whole entry E245D) above, with D245E, T453I counted along it

B1: His-nebulette modules 1–5 (recombinant) (domain or fragment, UniProt O76041 32-213, looked up)
chain: PVIEDLSMELARKCTELISDIRYKEEFKKSKDKCTFVTDSPMLNHVKNIGAFISEAKYKGTIKADLSNSLYKRMPATIDSVFAGEVTQLQSEVAYKQKHDAAKGFSDYAHMKEPPEVKHAMEVNKHQSNISYRKDVQDTHTYSAELDRPDIKMATQISKIISNAEYKKGQGIMNKEPAVIGR
In the case of B1, the Kd was 3 nM in assay [1], 16 to 24 nM in assay [2] and 5 to 6 nM in assay [3].
